Test [1] has as its target T1, B lymphocyte stimulator protein (BLyS), recombinant (human, UniProt Q9Y275 134-285, limits assumed, biotinylated in the phage screening and phage ELISA; unlabeled in fluorescence anisotropy).
T1 construct: also called biotinylated BLyS; b-BLyS
Kind of test: fluorescence anisotropy. (In general: Fluorescence polarisation rises when a labelled molecule tumbles more slowly, as on binding a larger partner.)
Description: Dissociation constants between the synthetic peptides and BLyS (free in solution) were measured by fluorescence anisotropy (FA). In these experiments, the concentration of the fluorescein-labeled peptide is held constant and the BLyS protein concentration was varied. The observed change in anisotropy is fit to the following equation via nonlinear regression to obtain the apparent KD.
Binding reactions containing 50 nM fluorescein-labeled peptide and a varied concentration of BLyS in a volume between 10 and 20 μL per well were performed in 384 well microplates. Reactions were assayed using a Tecan Polarion fluorescence polarization plate reader. Cross-competition studies between peptides were performed using 50 nM fluorescein-labeled peptide and 1-2 μM BLyS in the presence and absence of 100 μM unlabeled peptide. […] Other buffers in which dissociation constants of BLyS Binding polypeptides were detremined include: [pH 6.0, 0.01% Tween], [pH 6.0, 0.1% gelatin], [pH5.0, 0.01% Tween], [pH9.0, 0.1% Tween], [pH6.0, 15% ethylene glycol, 0.01 % Tween], ], [pH5.0, 15% ethylene glycol, 0.01 % Tween], and [pH9.0, 15% ethylene glycol, 0.01 % Tween].

The target of test [2] is T1, B lymphocyte stimulator protein (BLyS), …. The test can be described thus: not stated there (fluorescence anisotropy elsewhere).
Test [3] shares this target. Kind of test: not stated there.

No end group written: not given here.

Here are results for 3 molecules from patent US20030091565A1 (Human Genome Sciences, published 2003).

T1 sequence (Q9Y275 134-285 limits assumed): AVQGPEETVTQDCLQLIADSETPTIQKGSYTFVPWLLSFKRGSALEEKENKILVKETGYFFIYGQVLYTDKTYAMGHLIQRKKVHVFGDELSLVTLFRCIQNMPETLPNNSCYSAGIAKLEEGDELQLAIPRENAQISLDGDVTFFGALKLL

B1: DX876 (peptide)
peptide: Ac-WYDPLTKLWLGGK(fitc)
notes: 10-mer core (positions 3-12 of the 14-mer) with GGK linker
As a reminder, the Kd is a measure of binding affinity in units of concentration. In the case of B1, the Kd in test [1] stood at 171 nM.

As for Ac-WTDSLTGLWFPDGGPGPEGGGK [DX221], the Kd in test [2] is 3000 nM.

For the molecule VPFCDLLTKHCFEA (on M13 phage; also called TN8-01-B07) [453-01-B07], in test [3], the Kd came out at 700 nM.
